Like-named read-outs stand apart in the source and are kept apart here. Blank lines part the entries; values can stand above or below the binder they belong to.
Columns and labels:
[1] = target: the molecule itself; assay: cryo-EM structure
[2] = target: the molecule itself; assay: cryo-EM structure; remark: listed apart in the source
[3] = target: T1, LYCHOS(N145A)-Flag-NLuc (human, UniProt Q7Z3F1 1-870, N145A); assay: FRET or BRET
T1 sequence: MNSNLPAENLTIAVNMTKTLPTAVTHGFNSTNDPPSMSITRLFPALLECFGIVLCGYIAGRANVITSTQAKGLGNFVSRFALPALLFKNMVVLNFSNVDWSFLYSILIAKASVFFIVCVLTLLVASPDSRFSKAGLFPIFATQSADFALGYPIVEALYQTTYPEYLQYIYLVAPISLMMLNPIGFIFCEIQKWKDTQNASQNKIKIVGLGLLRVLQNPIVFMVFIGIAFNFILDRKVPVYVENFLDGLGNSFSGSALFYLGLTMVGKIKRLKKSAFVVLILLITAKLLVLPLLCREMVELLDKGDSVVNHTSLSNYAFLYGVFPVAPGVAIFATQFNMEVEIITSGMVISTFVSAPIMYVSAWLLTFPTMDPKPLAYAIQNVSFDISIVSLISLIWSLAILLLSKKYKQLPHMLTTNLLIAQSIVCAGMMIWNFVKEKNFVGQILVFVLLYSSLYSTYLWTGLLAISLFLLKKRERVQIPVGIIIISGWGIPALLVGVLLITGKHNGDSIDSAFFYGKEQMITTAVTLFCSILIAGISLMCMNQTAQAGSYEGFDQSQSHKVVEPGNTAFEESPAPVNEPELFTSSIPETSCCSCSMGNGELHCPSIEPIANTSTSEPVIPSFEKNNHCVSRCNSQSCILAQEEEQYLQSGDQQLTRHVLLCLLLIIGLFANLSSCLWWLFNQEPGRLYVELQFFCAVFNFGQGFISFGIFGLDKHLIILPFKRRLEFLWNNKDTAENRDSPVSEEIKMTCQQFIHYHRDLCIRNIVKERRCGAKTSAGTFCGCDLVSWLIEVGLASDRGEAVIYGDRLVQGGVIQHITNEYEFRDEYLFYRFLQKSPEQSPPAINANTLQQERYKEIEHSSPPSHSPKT

[4] = target: T2, LYCHOS(F352A/W678R/N145A)-Flag-NLuc (human, UniProt Q7Z3F1 1-870, F352A | W678R | N145A); assay: FRET or BRET
T2 sequence: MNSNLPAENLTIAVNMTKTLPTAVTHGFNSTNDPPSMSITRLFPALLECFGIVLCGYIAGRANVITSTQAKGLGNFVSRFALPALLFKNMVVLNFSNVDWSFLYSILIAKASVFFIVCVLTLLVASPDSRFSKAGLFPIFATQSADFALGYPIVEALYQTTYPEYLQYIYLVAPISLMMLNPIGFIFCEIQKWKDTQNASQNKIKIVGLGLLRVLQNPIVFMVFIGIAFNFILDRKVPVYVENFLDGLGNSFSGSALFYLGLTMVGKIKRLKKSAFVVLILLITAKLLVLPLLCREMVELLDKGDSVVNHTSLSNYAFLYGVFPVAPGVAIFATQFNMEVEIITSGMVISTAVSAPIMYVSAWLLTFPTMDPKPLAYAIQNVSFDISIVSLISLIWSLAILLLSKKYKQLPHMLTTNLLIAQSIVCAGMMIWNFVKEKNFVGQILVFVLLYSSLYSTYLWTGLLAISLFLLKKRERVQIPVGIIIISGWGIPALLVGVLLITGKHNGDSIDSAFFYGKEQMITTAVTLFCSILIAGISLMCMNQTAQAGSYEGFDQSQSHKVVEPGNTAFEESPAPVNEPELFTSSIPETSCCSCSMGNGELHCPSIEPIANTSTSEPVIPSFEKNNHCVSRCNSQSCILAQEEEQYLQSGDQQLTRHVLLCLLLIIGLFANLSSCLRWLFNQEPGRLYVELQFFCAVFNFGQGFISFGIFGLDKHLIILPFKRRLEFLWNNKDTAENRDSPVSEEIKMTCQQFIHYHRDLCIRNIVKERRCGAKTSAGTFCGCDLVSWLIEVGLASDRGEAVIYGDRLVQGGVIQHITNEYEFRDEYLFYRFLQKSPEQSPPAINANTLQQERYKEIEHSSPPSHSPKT

B1: LYCHOS (GPR155), wild type, C-terminal Flag tag, expressed in Sf9 cells (natural protein, human)
chain: MNSNLPAENLTIAVNMTKTLPTAVTHGFNSTNDPPSMSITRLFPALLECFGIVLCGYIAGRANVITSTQAKGLGNFVSRFALPALLFKNMVVLNFSNVDWSFLYSILIAKASVFFIVCVLTLLVASPDSRFSKAGLFPIFATQSNDFALGYPIVEALYQTTYPEYLQYIYLVAPISLMMLNPIGFIFCEIQKWKDTQNASQNKIKIVGLGLLRVLQNPIVFMVFIGIAFNFILDRKVPVYVENFLDGLGNSFSGSALFYLGLTMVGKIKRLKKSAFVVLILLITAKLLVLPLLCREMVELLDKGDSVVNHTSLSNYAFLYGVFPVAPGVAIFATQFNMEVEIITSGMVISTFVSAPIMYVSAWLLTFPTMDPKPLAYAIQNVSFDISIVSLISLIWSLAILLLSKKYKQLPHMLTTNLLIAQSIVCAGMMIWNFVKEKNFVGQILVFVLLYSSLYSTYLWTGLLAISLFLLKKRERVQIPVGIIIISGWGIPALLVGVLLITGKHNGDSIDSAFFYGKEQMITTAVTLFCSILIAGISLMCMNQTAQAGSYEGFDQSQSHKVVEPGNTAFEESPAPVNEPELFTSSIPETSCCSCSMGNGELHCPSIEPIANTSTSEPVIPSFEKNNHCVSRCNSQSCILAQEEEQYLQSGDQQLTRHVLLCLLLIIGLFANLSSCLWWLFNQEPGRLYVELQFFCAVFNFGQGFISFGIFGLDKHLIILPFKRRLEFLWNNKDTAENRDSPVSEEIKMTCQQFIHYHRDLCIRNIVKERRCGAKTSAGTFCGCDLVSWLIEVGLASDRGEAVIYGDRLVQGGVIQHITNEYEFRDEYLFYRFLQKSPEQSPPAINANTLQQERYKEIEHSSPPSHSPKT
stoichiometry N [1]: 2

B2: LYCHOS (GPR155), wild type, C-terminal Flag tag, expressed in Expi293F cells (natural protein, human)
chain: MNSNLPAENLTIAVNMTKTLPTAVTHGFNSTNDPPSMSITRLFPALLECFGIVLCGYIAGRANVITSTQAKGLGNFVSRFALPALLFKNMVVLNFSNVDWSFLYSILIAKASVFFIVCVLTLLVASPDSRFSKAGLFPIFATQSNDFALGYPIVEALYQTTYPEYLQYIYLVAPISLMMLNPIGFIFCEIQKWKDTQNASQNKIKIVGLGLLRVLQNPIVFMVFIGIAFNFILDRKVPVYVENFLDGLGNSFSGSALFYLGLTMVGKIKRLKKSAFVVLILLITAKLLVLPLLCREMVELLDKGDSVVNHTSLSNYAFLYGVFPVAPGVAIFATQFNMEVEIITSGMVISTFVSAPIMYVSAWLLTFPTMDPKPLAYAIQNVSFDISIVSLISLIWSLAILLLSKKYKQLPHMLTTNLLIAQSIVCAGMMIWNFVKEKNFVGQILVFVLLYSSLYSTYLWTGLLAISLFLLKKRERVQIPVGIIIISGWGIPALLVGVLLITGKHNGDSIDSAFFYGKEQMITTAVTLFCSILIAGISLMCMNQTAQAGSYEGFDQSQSHKVVEPGNTAFEESPAPVNEPELFTSSIPETSCCSCSMGNGELHCPSIEPIANTSTSEPVIPSFEKNNHCVSRCNSQSCILAQEEEQYLQSGDQQLTRHVLLCLLLIIGLFANLSSCLWWLFNQEPGRLYVELQFFCAVFNFGQGFISFGIFGLDKHLIILPFKRRLEFLWNNKDTAENRDSPVSEEIKMTCQQFIHYHRDLCIRNIVKERRCGAKTSAGTFCGCDLVSWLIEVGLASDRGEAVIYGDRLVQGGVIQHITNEYEFRDEYLFYRFLQKSPEQSPPAINANTLQQERYKEIEHSSPPSHSPKT
stoichiometry N [2]: 2

BRET50 [3]: 0.23 ± 0.06
BRET50 [4]: 0.03 ± 0.01
B3: HA-cpmCitrine-NPRL2 (natural protein, UniProt Q8WTW4 1-380, looked up)
chain: MGSGCRIECIFFSEFHPTLGPKITYQVPEDFISRELFDTVQVYIITKPELQNKLITVTAMEKKLIGCPVCIEHKKYSRNALLFNLGFVCDAQAKTCALEPIVKKLAGYLTTLELESSFVSMEESKQKLVPIMTILLEELNASGRCTLPIDESNTIHLKVIEQRPDPPVAQEYDVPVFTKDKEDFFNSQWDLTTQQILPYIDGFRHIQKISAEADVELNLVRIAIQNLLYYGVVTLVSILQYSNVYCPTPKVQDLVDDKSLQEACLSYVTKQGHKRASLRDVFQLYCSLSPGTTVRDLIGRHPQQLQHVDERKLIQFGLMKNLIRRLQKYPVRVTREEQSHPARLYTGCHSYDEICCKTGMSYHELDERLENDPNIIICWK

Source: paper PMC11525196 (Nature, 2024)
